# Data published in paper PMC10397247.
# T1: 4H319-bH
# T1 chain: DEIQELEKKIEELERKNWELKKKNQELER
# T2: 4H2915-bH
# T2 chain: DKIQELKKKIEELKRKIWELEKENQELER
# T3: 4H2503-bH
# T3 chain: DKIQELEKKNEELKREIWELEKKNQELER
# T4: 4H741-bH
# T4 chain: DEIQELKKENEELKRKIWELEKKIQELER
# T5: 4H3057-bH
# T5 chain: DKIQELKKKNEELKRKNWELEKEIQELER
# T6: 4H3277-bH
# T6 chain: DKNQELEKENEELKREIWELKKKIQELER
# T7: 4H2143-bH
# T7 chain: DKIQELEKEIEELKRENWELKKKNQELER
# T8: 4H348-bH
# T8 chain: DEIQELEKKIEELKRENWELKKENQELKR
# T9: 4H2438-bH
# T9 chain: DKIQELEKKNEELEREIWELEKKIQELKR
# T10: 4H182-bH
# T10 chain: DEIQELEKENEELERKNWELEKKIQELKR
# T11: 4H2839-bH
# T11 chain: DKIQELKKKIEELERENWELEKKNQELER
# T12: 4H2223-bH
# T12 chain: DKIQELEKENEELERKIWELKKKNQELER
# T13: 4H2473-bH
# T13 chain: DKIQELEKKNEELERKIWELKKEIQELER
# T14: 4H2134-bH
# T14 chain: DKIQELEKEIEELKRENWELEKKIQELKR
# T15: 4H477-bH
# T15 chain: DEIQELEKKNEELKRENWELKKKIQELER
# T16: 4H40-bH
# T16 chain: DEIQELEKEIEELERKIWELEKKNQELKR
# T17: 4H492-bH
# T17 chain: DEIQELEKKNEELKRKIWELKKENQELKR
# T18: 4H2692-bH
# T18 chain: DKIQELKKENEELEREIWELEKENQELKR
# T19: 4H2588-bH
# T19 chain: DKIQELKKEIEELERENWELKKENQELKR
# T20: 4H2717-bH
# T20 chain: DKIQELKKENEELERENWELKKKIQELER
# T21: 4H1449-bN
# T21 chain: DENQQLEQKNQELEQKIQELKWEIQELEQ
# T22: 4H1544-bN
# T22 chain: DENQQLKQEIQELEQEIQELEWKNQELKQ
# T23: 4H1348-bN
# T23 chain: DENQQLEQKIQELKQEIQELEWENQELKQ
# T24: 4H3628-bN
# T24 chain: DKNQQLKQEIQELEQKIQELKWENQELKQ
# T25: 4H1338-bN
# T25 chain: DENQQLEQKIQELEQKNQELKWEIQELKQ
# T26: 4H3858-bN
# T26 chain: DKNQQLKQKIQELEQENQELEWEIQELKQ
# T27: 4H3613-bN
# T27 chain: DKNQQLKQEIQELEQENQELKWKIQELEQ
# T28: 4H1899-bN
# T28 chain: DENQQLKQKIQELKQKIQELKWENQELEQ
# T29: 4H3817-bN
# T29 chain: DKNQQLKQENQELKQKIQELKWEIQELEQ
# T30: 4H2702-bA
# T30 chain: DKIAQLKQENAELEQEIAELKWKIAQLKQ
# T31: 4H850-bN
# T31 chain: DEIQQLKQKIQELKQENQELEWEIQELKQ
# T32: 4H1373-bN
# T32 chain: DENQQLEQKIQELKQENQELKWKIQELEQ
# T33: 4H1985-bN
# T33 chain: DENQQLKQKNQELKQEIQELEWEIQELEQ
# T34: 4H1710-bN
# T34 chain: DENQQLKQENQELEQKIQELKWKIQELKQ
# T35: 4H3974-bN
# T35 chain: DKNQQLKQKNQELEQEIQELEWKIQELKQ
# T36: 4H570-bN
# T36 chain: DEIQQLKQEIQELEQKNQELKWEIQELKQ
# T37: 4H3632-bA
# T37 chain: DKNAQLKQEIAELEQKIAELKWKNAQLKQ
# T38: 4H2691-bA
# T38 chain: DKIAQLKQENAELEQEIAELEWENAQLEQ
# T39: 4H145-bA
# T39 chain: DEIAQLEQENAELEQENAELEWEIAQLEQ
# T40: 4H496-bA
# T40 chain: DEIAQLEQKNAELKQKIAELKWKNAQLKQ
# T41: 4H342-bA
# T41 chain: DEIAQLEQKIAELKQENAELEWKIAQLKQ
# T42: 4H3070-bA
# T42 chain: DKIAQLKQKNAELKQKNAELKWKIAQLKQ
# T43: 4H2619-bA
# T43 chain: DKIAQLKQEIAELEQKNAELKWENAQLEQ
# T44: 4H1629-bA
# T44 chain: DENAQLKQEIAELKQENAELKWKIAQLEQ
# T45: 4H3631-bA
# T45 chain: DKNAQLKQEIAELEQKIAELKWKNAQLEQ
# T46: 4H1393-bA
# T46 chain: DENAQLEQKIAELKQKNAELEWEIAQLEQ
# T47: 4H1449-bA
# T47 chain: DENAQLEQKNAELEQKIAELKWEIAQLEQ
# T48: 4H3172-bA
# T48 chain: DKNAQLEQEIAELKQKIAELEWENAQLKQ
# T49: 4H619-bA
# T49 chain: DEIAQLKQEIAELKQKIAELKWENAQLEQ
# T50: 4H584-bA
# T50 chain: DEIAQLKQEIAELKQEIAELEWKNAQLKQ
# T51: 4H3414-bA
# T51 chain: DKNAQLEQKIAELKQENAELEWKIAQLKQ
# T52: 4H1710-bA
# T52 chain: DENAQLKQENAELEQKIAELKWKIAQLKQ
# T53: 4H1985-bA
# T53 chain: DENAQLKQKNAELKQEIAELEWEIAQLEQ
# T54: 4H1804-bA
# T54 chain: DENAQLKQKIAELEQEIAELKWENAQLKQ
# T55: 4H906-bA
# T55 chain: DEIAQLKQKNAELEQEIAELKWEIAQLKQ
# T56: 4H570-bA
# T56 chain: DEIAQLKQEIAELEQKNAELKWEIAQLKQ
# T57: 4H3129-bA
# T57 chain: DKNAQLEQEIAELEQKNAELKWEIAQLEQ
# T58: 4H1359-bA
# T58 chain: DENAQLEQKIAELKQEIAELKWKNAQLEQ
# T59: 4H3974-bA
# T59 chain: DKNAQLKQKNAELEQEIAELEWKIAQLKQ
# T60: 4H850-bA
# T60 chain: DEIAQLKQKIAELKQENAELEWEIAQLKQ
# T61: 4H3638-bA
# T61 chain: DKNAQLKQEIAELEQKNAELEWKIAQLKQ
# T62: 4H3817-bA
# T62 chain: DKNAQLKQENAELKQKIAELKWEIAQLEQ
# B1: 4H182-bH (peptide)
# chain: DEIQELEKENEELERKNWELEKKIQELKR
# B2: 4H1338-bN (peptide)
# chain: DENQQLEQKIQELEQKNQELKWEIQELKQ
# B3: 4H145-bA (peptide)
# chain: DEIAQLEQENAELEQENAELEWEIAQLEQ
# B4: 4H1359-bA (peptide)
# chain: DENAQLEQKIAELKQEIAELKWKNAQLEQ
# Tests used:
# Experiment in all cases: two-hybrid library CCNG1;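 further: natural log of median RNA to DNA barcode read ratio; higher means stronger binding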
# 4H319-bH = molecular target: T1, 4H319-bH
# 4H2915-bH = molecular target: T2, 4H2915-bH
# 4H2503-bH = molecular target: T3, 4H2503-bH
# 4H741-bH = molecular target: T4, 4H741-bH
# 4H3057-bH = molecular target: T5, 4H3057-bH
# 4H3277-bH = molecular target: T6, 4H3277-bH
# 4H2143-bH = molecular target: T7, 4H2143-bH
# 4H348-bH = molecular target: T8, 4H348-bH
# 4H2438-bH = molecular target: T9, 4H2438-bH
# 4H182-bH = molecular target: T10, 4H182-bH
# 4H2839-bH = molecular target: T11, 4H2839-bH
# 4H2223-bH = molecular target: T12, 4H2223-bH
# 4H2473-bH = molecular target: T13, 4H2473-bH
# 4H2134-bH = molecular target: T14, 4H2134-bH
# 4H477-bH = molecular target: T15, 4H477-bH
# 4H40-bH = molecular target: T16, 4H40-bH
# 4H492-bH = molecular target: T17, 4H492-bH
# 4H2692-bH = molecular target: T18, 4H2692-bH
# 4H2588-bH = molecular target: T19, 4H2588-bH
# 4H2717-bH = molecular target: T20, 4H2717-bH
# 4H1449-bN = molecular target: T21, 4H1449-bN
# 4H1544-bN = molecular target: T22, 4H1544-bN
# 4H1348-bN = molecular target: T23, 4H1348-bN
# 4H3628-bN = molecular target: T24, 4H3628-bN
# 4H1338-bN = molecular target: T25, 4H1338-bN
# 4H3858-bN = molecular target: T26, 4H3858-bN
# 4H3613-bN = molecular target: T27, 4H3613-bN
# 4H1899-bN = molecular target: T28, 4H1899-bN
# 4H3817-bN = molecular target: T29, 4H3817-bN
# 4H2702-bA = molecular target: T30, 4H2702-bA
# 4H850-bN = molecular target: T31, 4H850-bN
# 4H1373-bN = molecular target: T32, 4H1373-bN
# 4H1985-bN = molecular target: T33, 4H1985-bN
# 4H1710-bN = molecular target: T34, 4H1710-bN
# 4H3974-bN = molecular target: T35, 4H3974-bN
# 4H570-bN = molecular target: T36, 4H570-bN
# 4H3632-bA = molecular target: T37, 4H3632-bA
# 4H2691-bA = molecular target: T38, 4H2691-bA
# 4H145-bA = molecular target: T39, 4H145-bA; conditions: mean of both orientations
# 4H496-bA = molecular target: T40, 4H496-bA
# 4H342-bA = molecular target: T41, 4H342-bA
# 4H3070-bA = molecular target: T42, 4H3070-bA; conditions: mean of both orientations
# 4H2619-bA = molecular target: T43, 4H2619-bA
# 4H1629-bA = molecular target: T44, 4H1629-bA
# 4H3631-bA = molecular target: T45, 4H3631-bA
# 4H1393-bA = molecular target: T46, 4H1393-bA
# 4H1449-bA = molecular target: T47, 4H1449-bA
# 4H3172-bA = molecular target: T48, 4H3172-bA
# 4H619-bA = molecular target: T49, 4H619-bA
# 4H584-bA = molecular target: T50, 4H584-bA
# 4H3414-bA = molecular target: T51, 4H3414-bA
# 4H1710-bA = molecular target: T52, 4H1710-bA
# 4H1985-bA = molecular target: T53, 4H1985-bA
# 4H1804-bA = molecular target: T54, 4H1804-bA
# 4H906-bA = molecular target: T55, 4H906-bA
# 4H570-bA = molecular target: T56, 4H570-bA
# 4H3129-bA = molecular target: T57, 4H3129-bA
# 4H1359-bA = molecular target: T58, 4H1359-bA
# 4H3974-bA = molecular target: T59, 4H3974-bA
# 4H850-bA = molecular target: T60, 4H850-bA
# 4H3638-bA = molecular target: T61, 4H3638-bA
# 4H3817-bA = molecular target: T62, 4H3817-bA
binder,measurement,setting,value
B1,interaction score,4H319-bH,0.27
same,interaction score,4H2915-bH,0.801
same,interaction score,4H2503-bH,0.0255
same,interaction score,4H741-bH,-0.207
same,interaction score,4H3057-bH,0.511
same,interaction score,4H3277-bH,-0.523
same,interaction score,4H2143-bH,0.14
same,interaction score,4H348-bH,-0.493
same,interaction score,4H2438-bH,-0.311
same,interaction score,4H182-bH,0.517
same,interaction score,4H2839-bH,-0.281
same,interaction score,4H2223-bH,0.341
same,interaction score,4H2473-bH,0.11
same,interaction score,4H2134-bH,0.462
same,interaction score,4H477-bH,-0.331
same,interaction score,4H40-bH,-0.335
same,interaction score,4H492-bH,-0.775
same,interaction score,4H2692-bH,1.16
same,interaction score,4H2588-bH,-0.809
same,interaction score,4H2717-bH,-0.508
B2,interaction score,4H1449-bN,-0.847
same,interaction score,4H1544-bN,0.114
same,interaction score,4H1348-bN,-1.29
same,interaction score,4H3628-bN,-0.229
same,interaction score,4H1338-bN,0.0248
same,interaction score,4H3858-bN,1.37
same,interaction score,4H3613-bN,-0.479
same,interaction score,4H1899-bN,-2.73
same,interaction score,4H3817-bN,-0.326
same,interaction score,4H2702-bA,-2.23
same,interaction score,4H850-bN,0.8
same,interaction score,4H1373-bN,-1.16
same,interaction score,4H1985-bN,-0.88
same,interaction score,4H1710-bN,-0.345
same,interaction score,4H3974-bN,-0.674
same,interaction score,4H570-bN,-0.567
B3,interaction score,4H3632-bA,-1.06
same,interaction score,4H2691-bA,-0.624
same,interaction score,4H145-bA,-0.795
same,interaction score,4H496-bA,-1.06
same,interaction score,4H342-bA,-1.12
same,interaction score,4H3070-bA,2.5
same,interaction score,4H2619-bA,-0.672
B4,interaction score,4H1629-bA,-0.732
same,interaction score,4H3631-bA,1.41
same,interaction score,4H1393-bA,-0.644
same,interaction score,4H1449-bA,-0.804
same,interaction score,4H3172-bA,-0.287
same,interaction score,4H619-bA,-0.844
same,interaction score,4H584-bA,-0.341
same,interaction score,4H3414-bA,-0.665
same,interaction score,4H1710-bA,-0.54
same,interaction score,4H1985-bA,0.768
same,interaction score,4H1804-bA,-0.948
same,interaction score,4H906-bA,-0.601
same,interaction score,4H570-bA,-0.609
same,interaction score,4H3129-bA,-0.77
same,interaction score,4H1359-bA,0.162
same,interaction score,4H3974-bA,-0.0513
same,interaction score,4H850-bA,-0.751
same,interaction score,4H3638-bA,-0.492
same,interaction score,4H3817-bA,-0.524
